Here are results for one molecule from article PMC4584387 (Journal of Medicinal Chemistry, 2015).

Where no end group is shown, it is not given here.

The target in the experiment is Full-length human menin (human, UniProt O00255 1-610). The experiment in a line: fluorescence polarisation.
Full-length human menin, sequence (O00255 whole entry): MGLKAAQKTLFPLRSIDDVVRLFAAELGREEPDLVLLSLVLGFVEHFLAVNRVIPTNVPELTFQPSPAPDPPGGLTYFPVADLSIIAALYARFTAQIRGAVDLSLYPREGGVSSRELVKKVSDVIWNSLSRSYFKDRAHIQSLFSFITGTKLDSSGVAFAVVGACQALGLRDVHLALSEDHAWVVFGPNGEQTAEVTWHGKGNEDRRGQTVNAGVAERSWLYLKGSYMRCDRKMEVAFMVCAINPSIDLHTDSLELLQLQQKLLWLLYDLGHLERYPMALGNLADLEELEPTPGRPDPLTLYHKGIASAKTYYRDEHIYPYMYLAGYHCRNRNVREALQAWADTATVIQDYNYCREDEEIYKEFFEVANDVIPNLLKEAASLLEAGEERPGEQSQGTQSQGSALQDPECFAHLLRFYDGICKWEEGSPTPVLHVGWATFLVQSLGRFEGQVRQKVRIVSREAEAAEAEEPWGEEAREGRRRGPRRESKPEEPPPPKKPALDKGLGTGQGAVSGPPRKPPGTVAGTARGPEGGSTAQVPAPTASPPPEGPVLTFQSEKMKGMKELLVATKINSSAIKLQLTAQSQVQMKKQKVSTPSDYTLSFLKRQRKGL

SCRWRFPARPGT (peptide, UniProt Q03164 4-15, looked up, also: FITC label, position not given here) [FITC-MBM1 peptide of MLL (residues 4-15)]: the binding result was “binds”.
